Measurements taken from patent publication US20100255012A1 (Genmab, published 2010).

What was measured:
[1] = biological target: the molecule itself; test: gel filtration on Superdex 200 (eluted at about 70 kD); self-association of half-molecules
Experimental: Samples (100 μl) were applied to a Superdex 200 HR 10/30 column (Amersham Biosciences, Uppsala, Sweden), which was connected to a HPLC system (ÄKTA explorer) from Amersham Biosciences, Uppsala, Sweden. The column was first equilibrated in PBS. Fractions of 250 μl were collected, in which Bet v 1 specific IgG was measured using the antigen binding assay.
To test the antigen binding of the Bet v 1 specific antibodies, a sample of diluted antibody was incubated overnight at room temperature with 0.75 mg Protein-G sepharose (Amersham Biosciences, Uppsala, Sweden) in 750 μl PBS/AT (PBS supplemented with 0.3% BSA, 0.1% Tween-20, 0.05% NaN3) together with 50 μl diluted ¹²⁵I-labelled Bet v 1 or ¹²⁵I-labelled Fel d 1. […] After washing the Sepharose suspension with PBS-T (PBS supplemented with 0.1% Tween-20), the bound radioactivity was measured. The results were expressed as the amount of radioactivity relative to the amount added.

human C1q = biological target: T1, human C1q (human, UniProt P02745 23-245; P02746 28-253; P02747 29-245); test: ELISA, antibody coated, bound C1q detected with rabbit anti-human C1q
T1 construct: Bought human C1q; also called first component of the classical complement cascade
Experimental: In short, microtiter ELISA plates (Greiner, Germany) were coated overnight at RT with the test antibodies serially diluted from 10 μg/ml to 0.06 μg/ml in PBS. Plates were emptied and wells were blocked with 200 μl ELISA-diluent per well (0.1 M NaPO₄, 0.1 M NaCl, 0.1% gelatin and 0.05% Tween-20), at RT for 30 minutes. […] After washing the plates (3×) with PBST, wells were incubated with HRP-conjugated swine anti-rabbit IgG-Fc (DAKO, P0300, lot #069) diluted in ELISA diluent (1:2500, 100 μl/well, RT, 1 hour). Thereafter, plates were washed thrice and assays were developed with freshly prepared 1 mg/ml ABTS solution (ABTS: 2,2′-azino-bis[3-ethylbenzthiazoline-6-sulfonic acid]); 2 tablets of 5 mg in 10 ml ABTS buffer, Boehringer Mannheim, Ingelheim, Germany) at RT in the dark for 30 minutes. Absorbance was measured at 405 nm in an ELISA plate reader (Biotek Instruments Inc., Winooski, USA).

T1 sequence (P02745 23-245 limits assumed, chain 1 of 3): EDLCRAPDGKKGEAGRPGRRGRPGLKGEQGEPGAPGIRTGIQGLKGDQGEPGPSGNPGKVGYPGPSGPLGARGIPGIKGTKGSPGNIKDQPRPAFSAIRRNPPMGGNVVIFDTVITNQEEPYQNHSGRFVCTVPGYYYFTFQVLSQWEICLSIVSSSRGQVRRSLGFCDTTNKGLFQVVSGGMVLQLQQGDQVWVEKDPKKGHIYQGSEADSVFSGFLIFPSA
T1 sequence (P02746 28-253 limits assumed, chain 2 of 3): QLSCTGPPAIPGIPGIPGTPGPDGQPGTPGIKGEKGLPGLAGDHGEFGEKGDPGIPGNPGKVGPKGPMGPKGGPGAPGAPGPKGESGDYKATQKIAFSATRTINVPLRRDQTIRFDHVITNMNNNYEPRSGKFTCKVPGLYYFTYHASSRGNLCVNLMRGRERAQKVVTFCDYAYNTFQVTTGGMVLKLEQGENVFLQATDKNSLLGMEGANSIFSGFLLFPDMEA
T1 sequence (P02747 29-245 limits assumed, chain 3 of 3): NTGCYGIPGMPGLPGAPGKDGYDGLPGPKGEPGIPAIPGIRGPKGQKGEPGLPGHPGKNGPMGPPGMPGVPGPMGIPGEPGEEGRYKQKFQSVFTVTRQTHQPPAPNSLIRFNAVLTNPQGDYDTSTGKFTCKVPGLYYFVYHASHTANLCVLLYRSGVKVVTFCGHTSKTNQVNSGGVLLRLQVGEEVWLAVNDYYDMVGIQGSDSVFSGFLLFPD

binding result (human C1q) | Binder | binding result [1]
– | Betv1-HG (antibody, V domains shown, Half-molecule of one heavy and one light chain; also called anti-Betv1-HG; hingeless IgG4 anti-Bet v 1) VH: EVQLQQSGAELVKPGASVKLSCTASGFNIKDTYIHWVKQRPEQGLEWVGRIDPATGNTRYDPKFQGKATITADTSSNTAYLQLSSLTSEDTAVYYCASFRPGYALDYWGQGTSVTVSS VL: DIVMTQSHKFMSTSVGDRVSFTCKASQDVFTAVAWYQQKPGQSPKLLIYWASTRRTGVPDRFTGSGSGTDYTLTISSVQAEDLALYYCQQHFSTPPTFGGGTKLEIKR | no binding
no binding | 7D8-HG (antibody, Half-molecule of one heavy and one light chain; also called HuMab 7D8-HG; hingeless IgG4 anti-CD20) heavy: EVQLVESGGGLVQPDRSLRLSCAASGFTFHDYAMHWVRQAPGKGLEWVSTISWNSGTIGYADSVKGRFTISRDNAKNSLYLQMNSLRAEDTALYYCAKDIQYGNYYYGMDVWGQGTTVTVSSASTKGPSVFPLAPCSRSTSESTAALGCLVKDYFPEPVTVSWNSGALTSGVHTFPAVLQSSGLYSLSSVVTVPSSSLGTKTYTCNVDHKPSNTKVDKRVAPEFLGGPSVFLFPPKPKDTLMISRTPEVTCVVVDVSQEDPEVQFNWYVDGVEVHNAKTKPREEQFNSTYRVVSVLTVLHQDWLNGKEYKCKVSNKGLPSSIEKTISKAKGQPREPQVYTLPPSQEEMTKNQVSLTCLVKGFYPSDIAVEWESNGQPENNYKTTPPVLDSDGSFFLYSRLTVDKSRWQEGNVFSCSVMHEALHNHYTQKSLSLSLGK light: not shown | –
